Measured values published in article PMC314469, “Protein Interaction Networks by Proteome Peptide Scanning” (PLoS Biology, 2004).

T1: Rvs167 SH3 (RV167_YEAST), P39743
T1 chain: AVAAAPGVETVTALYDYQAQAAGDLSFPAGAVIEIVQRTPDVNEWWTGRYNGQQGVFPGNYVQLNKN

T2: Boi2 SH3 (BOI2_YEAST), P39969
T2 chain: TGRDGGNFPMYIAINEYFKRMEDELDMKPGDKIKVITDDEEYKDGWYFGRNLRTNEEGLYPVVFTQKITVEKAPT

T3: Yfr024 SH3 (LSB3_YEAST), P43603
T3 chain: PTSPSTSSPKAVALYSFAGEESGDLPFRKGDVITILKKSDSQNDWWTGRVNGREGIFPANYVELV

T4: Yhr016c SH3 (YSC84_YEAST), P32793
T4 chain: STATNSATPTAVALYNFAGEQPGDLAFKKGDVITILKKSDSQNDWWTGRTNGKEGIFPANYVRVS

T5: Boi1 SH3 (BOI1_YEAST), P38041
T5 chain: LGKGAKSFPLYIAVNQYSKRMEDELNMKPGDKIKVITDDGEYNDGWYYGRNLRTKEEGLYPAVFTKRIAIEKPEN


Tests used:
Assay in all cases: SPOT array
[1] = target: T1, Rvs167 SH3 (RV167_YEAST), P39743
[2] = target: T2, Boi2 SH3 (BOI2_YEAST), P39969
[3] = target: T3, Yfr024 SH3 (LSB3_YEAST), P43603
[4] = target: T4, Yhr016c SH3 (YSC84_YEAST), P32793
[5] = target: T5, Boi1 SH3 (BOI1_YEAST), P38041

Row | Binder | normalised SPOT signal, Boehringer light units (BLU); mean over the file's lines of this peptide [1] | normalised SPOT signal, Boehringer light units (BLU); mean over the file's lines of this peptide [2] | normalised SPOT signal, Boehringer light units (BLU); mean over the file's lines of this peptide [3] | normalised SPOT signal, Boehringer light units (BLU); mean over the file's lines of this peptide [4] | normalised SPOT signal, Boehringer light units (BLU); mean over the file's lines of this peptide [5]
1 | DYNPTIPPRSKDRP [YOL070C 274-287] | 3120 | 11300 | 6750 | 2400 | 35500
2 | DYLPPVPEKNAGKQ [YDR322W 274-287] | 42.3 | 91.7 | 681 | 198 | 47.4
3 | EFSPTYPSKLFVPR [YJR110W 189-202] | 69.9 | 33.3 | 796 | 143 | 53.2
4 | EANPDNPKKLDLKA [YER166W 783-796] | 45.6 | 7.6 | 257 | 247 | 79.1
5 | DYLPQHPHRTSSLP [YDR103W 109-122] | 109 | 33.4 | 206 | 172 | 17.6
6 | DVPPQLPTRTKSGE [YOR042W 337-350] | 23600 | 61.9 | 27900 | 73200 | 76.3
7 | EEHPSSPGKKQITY [YLR238W 11-24] | 5.7 | 17.6 | 44.3 | 24.5 | 84
8 | EAPPAKPSRSDIID [YOR066W 225-238] | 31.9 | 54.9 | 3400 | 2010 | 70.5
9 | EAAPQLPSRSSAAP [YCR088W 505-518] | 23100 | 20.3 | 55000 | 93000 | 102
10 | EDTPDLPQKTGIRK [YJR137C 1229-1242] | 14.6 | 18 | 5620 | 100 | 24.7
11 | EEKPLLPTRPNKAE [YPR171W 203-216] | 6410 | 54.8 | 46300 | 62400 | 0
12 | DYNPPPPSRNSPIR [YJL204C 669-682] | 9.9 | 31.1 | 874 | 323 | 194
13 | EEHPPLPARRKSEE [YOR042W 80-93] | 26300 | 53.3 | 31200 | 72200 | 619
14 | DYQPLSPPRELDPD [YAR014C 249-262] | 322 | 8.8 | 506 | 313 | 122
15 | EESPVKPLKITQKA [YLL021W 583-596] | 51.1 | 40.1 | 290 | 51.3 | 59.6
16 | DVYPHEPAKNGEGS [YER081W 311-324] | 44.3 | 37.8 | 125 | 223 | 98.3
17 | ESHPELPNKDVKLD [YGL125W 158-171] | 25.4 | 22.1 | 139 | 75.4 | 128
